Assay results: article PMC3193169 (BMC Biotechnology, 2011)
Values joined by “and” are separate entries in the source; they are usually repeats but may differ in a detail not shown here. Identical values can stand only once.

Legend:
Conditions in all cases: both partners purified
[1] = target: Staphylococcus aureus enterotoxin B (SEB) toxin (Staphylococcus aureus, strain , UniProt P01552); assay: SPR
[2] = target: staphylococcal enterotoxin D (SED) (Staphylococcus aureus, strain , UniProt P20723); assay: Luminex fluid array direct binding assay
[3] = target: staphylococcal enterotoxin A (SEA) (Staphylococcus aureus, strain , UniProt P0A0L2); assay: Luminex fluid array direct binding assay
[4] = target: Shiga Toxin 1 (STX-1) (Stx1 (phage H30 of Escherichia coli), …, UniProt P10149;P69178); assay: Luminex fluid array direct binding assay
Sequence of Shiga Toxin 1 (STX-1) (P10149 23-315, chain 1 of 2): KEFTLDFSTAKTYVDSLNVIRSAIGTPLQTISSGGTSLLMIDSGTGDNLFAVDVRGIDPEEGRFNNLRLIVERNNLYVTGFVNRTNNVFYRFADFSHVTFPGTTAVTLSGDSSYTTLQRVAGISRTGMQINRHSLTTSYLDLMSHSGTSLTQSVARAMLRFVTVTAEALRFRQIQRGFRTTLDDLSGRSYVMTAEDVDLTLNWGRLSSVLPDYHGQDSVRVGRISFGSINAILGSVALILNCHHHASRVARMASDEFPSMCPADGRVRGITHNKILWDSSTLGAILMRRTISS
Sequence of Shiga Toxin 1 (STX-1) (P69178 21-89, chain 2 of 2): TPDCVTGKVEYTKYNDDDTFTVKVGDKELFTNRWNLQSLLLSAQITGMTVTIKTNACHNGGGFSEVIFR

B1: anti-SEB single domain antibody (sdAb) A3 (VHH)
VHH: EVQLVESGGGLVQAGDSLRLSCTASGRTFSRAVMGWFRQAPGKEREFVAAISAAPGTAYYAFYADSVRGRFSISADSAKNTVYLQMNSLKPEDTAVYYCAADLKMQVAAYMNQRSVDYWGQGTQVTVSS
[1]
  koff: 6e-05 s⁻¹ and 2.2e-05 s⁻¹
  kon: 100000 M⁻¹ s⁻¹ and 290000 M⁻¹ s⁻¹

B2: biotinylated sdAb A3 (VHH)
VHH: EVQLVESGGGLVQAGDSLRLSCTASGRTFSRAVMGWFRQAPGKEREFVAAISAAPGTAYYAFYADSVRGRFSISADSAKNTVYLQMNSLKPEDTAVYYCAADLKMQVAAYMNQRSVDYWGQGTQVTVSS
[2]
  binding result: no binding
[3]
  binding result: no binding
[4]
  binding result: no binding
[1]
  Kd: 0.39 nM
  koff: 2.8e-05 s⁻¹
  kon: 72000 M⁻¹ s⁻¹
